Laboratory results: article PMC3495951

Target: EGFP-H2B (UniProt P06899)
Assay: FRET or BRET; FLIM-FRET in living cells at 37°C; EGFP fusion as donor, mCherry fusion as acceptor; two-photon excitation at 890 nm; FRET efficiency = 1 - (tauDA/tauD), tauD from cells with mCherry-C1; control cells and TSA-treated cells

Q: How did the FRET efficiency (minor population) turn out when “mCherry-SRSF1 (from UniProt Q07955 1-248) (natural protein)” was run?
A: 6%
